Values of other authors, collected in publication PMC5289555.

What was measured:
[1] = molecular target: Hsp90 (Saccharomyces cerevisiae) (UniProt P02829)
[2] = molecular target: Hsp90 zipped construct (Saccharomyces cerevisiae) (UniProt P02829)

Row | Kd [1] [nM] | Kd [2] [nM] | Substance
1 | 60 |  | Hsp90 (from UniProt P02829)
2 |  | < 0.001 | Hsp90 zipped construct (from UniProt P02829)
